For 18 sequences, Kd results are on record in the Immune Epitope Database (IEDB).

Assay [1] deals with HLA-B*18:01. Description: IEDB peptide-MHC binding, purified MHC/competitive/radioactivity; filed as Kd, often an IC50 or EC50 that approximates it; ≥ and ≤ were set here for values at or beyond the usual limits of such assays.
The target of assay [2] is HLA-B*40:01. Described as above.
The target of another assay is HLA-B*40:02. Described as above.
Assay [3] concerns the target HLA-B*44:02. Described as above.
Another assay deals with HLA-B*44:03. The description is as above.
The target of another assay is HLA-B*45:01. Described as above.
For a further assay, the target named is HLA-B*15:42. Description: IEDB peptide-MHC binding, purified MHC/competitive/fluorescence; filed as Kd, often an IC50 or EC50 that approximates it; ≥ and ≤ were set here for values at or beyond the usual limits of such assays. The conditions noted are these: source organism: Human herpesvirus 4 strain B95-8.
In another assay the target is HLA-B*45:06. Described as above. The conditions noted are these: source organism: Human herpesvirus 4 strain B95-8.
In the next assay the target is HLA-B*83:01. Described as above. The conditions noted are these: source organism: Human herpesvirus 4 strain B95-8.
Assay [4] concerns the target HLA-B*18:01. As to the kind of experiment: IEDB peptide-MHC binding, purified MHC/direct/fluorescence; filed as Kd, often an IC50 or EC50 that approximates it; ≥ and ≤ were set here for values at or beyond the usual limits of such assays.
Assay [5] addresses HLA-B*40:01. The description is as above. The conditions noted are these: source organism: West Nile virus.
For assay [6], the target named is HLA-B*44:02. The assay is described as above. As to conditions: source organism: Dengue virus.
For another assay, the target named is HLA-A*24:03. The description is as above. The conditions noted are these: source organism: Entamoeba histolytica.
The next assay addresses HLA-B*46:01. As to the kind of experiment: IEDB peptide-MHC binding, purified MHC/competitive/fluorescence; filed as Kd, often an IC50 or EC50 that approximates it; ≥ and ≤ were set here for values at or beyond the usual limits of such assays. The conditions noted are these: source organism: Shigella flexneri 5 str. 8401.
Setting [7] is: source organism: SARS coronavirus Tor2.
Where [8] appears, read: source organism: Mammarenavirus juninense.
Setting [9] is: source organism: Mammarenavirus lassaense.
Setting [10] is: source organism: West Nile virus.
Setting [11] is: source organism: Mammarenavirus brazilense.
Setting [12] is: source organism: Lymphocytic choriomeningitis virus (strain Armstrong).

The term Kd denotes the constant that tells how readily two partners part at equilibrium. Turning to ADYSVLYNST, the equilibrium dissociation constant (Kd) with HLA-B*18:01 [1] (setting [7]) was at least 70500 nM; with HLA-B*40:01 [2] (setting [7]), at least 69600 nM; with HLA-B*40:02 (setting [7]), at least 30200 nM; with HLA-B*44:02 [3] (setting [7]), 1970 nM; in the assay with HLA-B*44:03 (setting [7]), at least 45700 nM; with HLA-B*45:01 (setting [7]), 768 nM.

As to CSDAFYPFY, the Kd in the assay with HLA-B*15:42, with HLA-B*45:06 and with HLA-B*83:01 was at least 5000 nM throughout.

In the case of DELPFVAPV, the Kd with HLA-B*18:01 [4] (source organism: Burkholderia ambifaria AMMD) stood at 0.6 nM.

For EDIDSVETL, the Kd in the assay with HLA-B*18:01 [1] (setting [8]) is 14400 nM; in the assay with HLA-B*40:01 [2] (setting [8]) it was 1880 nM; with HLA-B*40:02 (setting [8]) it was 1250 nM; with HLA-B*44:02 [3] (setting [8]) it was 12300 nM; in the assay with HLA-B*44:03 (setting [8]) it was at least 28300 nM; with HLA-B*45:01 (setting [8]) it was at least 24300 nM.

Regarding EELITDVEFL, the Kd with HLA-B*18:01 [1] (setting [9]) worked out at 19000 nM; in the assay with HLA-B*40:01 [2] (setting [9]) it was 3120 nM; in the assay with HLA-B*40:02 (setting [9]), 9850 nM; with HLA-B*44:02 [3] (setting [9]), 5160 nM; with HLA-B*44:03 (setting [9]) it was 6370 nM; in the assay with HLA-B*45:01 (setting [9]), 17900 nM.

Consider EERKNFLEL, for which the Kd is 48.4 nM with HLA-B*18:01 [4] (setting [10]) and at least 20000 nM with HLA-B*40:01 [5].

Turning to GDRWFLNRFT, the Kd in the assay with HLA-B*18:01 [1] (setting [7]) is at least 70500 nM; with HLA-B*40:01 [2] (setting [7]) it was at least 69600 nM; with HLA-B*40:02 (setting [7]) it was at least 70800 nM; with HLA-B*44:02 [3] (setting [7]), at least 70200 nM; with HLA-B*44:03 (setting [7]), at least 70100 nM; in the assay with HLA-B*45:01 (setting [7]) it was at least 70000 nM.

With GEDGCWYGM, the equilibrium dissociation constant (Kd) was 1260 nM with HLA-B*18:01 [4] (source organism: Dengue virus) and at least 20000 nM with HLA-B*44:02 [6].

With GEPKMTKAL, the dissociation constant Kd with HLA-B*18:01 [1] (setting [9]) is at least 77500 nM; with HLA-B*40:01 [2] (setting [9]) it was 1770 nM; with HLA-B*40:02 (setting [9]), 178 nM; in the assay with HLA-B*44:02 [3] (setting [9]) it was at least 20300 nM; in the assay with HLA-B*44:03 (setting [9]), at least 49900 nM; with HLA-B*45:01 (setting [9]), at least 68100 nM.

Consider HENKNATWCL, for which the Kd stood at 16600 nM in the assay with HLA-B*18:01 [1] (setting [11]); 915 nM with HLA-B*40:01 [2] (setting [11]); 54.4 nM with HLA-B*40:02 (setting [11]); 4540 nM with HLA-B*44:02 [3] (setting [11]); 15300 nM with HLA-B*44:03 (setting [11]); 5060 nM with HLA-B*45:01 (setting [11]).

With IEVALRTLLL, the Kd is 1710 nM with HLA-B*18:01 [1] (setting [12]); 1290 nM with HLA-B*40:01 [2] (setting [12]); 24.1 nM with HLA-B*40:02 (setting [12]); 9310 nM with HLA-B*44:02 [3] (setting [12]); 1830 nM in the assay with HLA-B*44:03 (setting [12]); at least 70000 nM with HLA-B*45:01 (setting [12]).

Regarding KETSYTTTI, the Kd in the assay with HLA-B*18:01 [1] (setting [7]) was at least 77500 nM; with HLA-B*40:01 [2] (setting [7]), 20.7 nM; with HLA-B*40:02 (setting [7]), 59.6 nM; in the assay with HLA-B*44:02 [3] (setting [7]), 90.8 nM; with HLA-B*44:03 (setting [7]) it was 125 nM; in the assay with HLA-B*45:01 (setting [7]), 183 nM.

For KHIKPIVEF, in the assay with HLA-A*24:03, the Kd is 70.5 nM.

LAMYHGQTY: the Kd in the assay with HLA-B*46:01 was at least 20000 nM.

For LEQWNLVIGF, the Kd in the assay with HLA-B*18:01 [1] (setting [7]) was determined as 155 nM; with HLA-B*40:01 [2] (setting [7]), 3940 nM; with HLA-B*40:02 (setting [7]), 565 nM; with HLA-B*44:02 [3] (setting [7]) it was 16.1 nM; with HLA-B*44:03 (setting [7]), 48.8 nM; in the assay with HLA-B*45:01 (setting [7]), 3980 nM.

With MEEPAPAGF, the equilibrium dissociation constant (Kd) with HLA-B*18:01 [4] (setting [10]) came out at 19.8 nM; with HLA-B*40:01 [5], 2570 nM.

In the case of NECAQVLSEM, the Kd with HLA-B*18:01 [1] (setting [7]) was found to be 177 nM; with HLA-B*40:01 [2] (setting [7]), 801 nM; with HLA-B*40:02 (setting [7]), 12200 nM; in the assay with HLA-B*44:02 [3] (setting [7]), 253 nM; with HLA-B*44:03 (setting [7]), 121 nM; in the assay with HLA-B*45:01 (setting [7]), 4950 nM.

Take NENPGGYCL: the Kd with HLA-B*18:01 [1] (setting [9]) was 73.1 nM; with HLA-B*40:01 [2] (setting [9]), 4920 nM; in the assay with HLA-B*40:02 (setting [9]), 278 nM; in the assay with HLA-B*44:02 [3] (setting [9]), 152 nM; with HLA-B*44:03 (setting [9]), 259 nM; in the assay with HLA-B*45:01 (setting [9]), 178 nM.
